Measurements reported in article PMC8431786, “In Search of Monocot Phosphodiesterases: Identification of a Calmodulin Stimulated Phosphodiesterase from Brachypodium distachyon” (International Journal of Molecular Sciences, 2021).

Substrate: [H][C@@]12COP(=O)(O)O[C@@]1([H])[C@@H](O)[C@H](n1cnc3c(=O)[nH]c(N)nc31)O2
Test: LC-MS/MS of GMP formed, Michaelis-Menten fit
Assay type: biochemical, Brachypodium distachyon
Details: 3 mM Tris-HCl pH 8.0, 37 °C, 25 min, 0.5 mM MgCl2 and MnCl2, 0.1% 2-mercaptoethanol, no calmodulin

B1: BDPDE1 (Brachypodium distachyon) (protein)
chain: MWPASKTQMHMFCLCRLDQPSCLVIGSARSINASTPKELSQNASSREIENRLLRVRRSATTGRSEPLARFNHPIQFQHARPPPAPAHGAHEGKKMAAAAVRRAEELVEREMSGRDASHDAAHALRVRDLALSLAAEQGLSSPDRLLIVELAALLHDIGDYKYTKDNMEDMSIVERFLQDVGLEKGQREEIVSIITGMGFKNEVSGKAAEPTLEFAVVQDADRLDAIGAIGVARCFTYGGSKNSALHDPKVLPRDNLSKEKYMSKEKQTSINHFHEKLFKLKDMMKTEAGKRRAEKRHKFMEDFVAEFYEEWSGRA
notes: GST-BDPDE1 fusion (pGEX-6P-2, N-terminal GST kept), cDNA from leaf and stalk RNA, E. coli BL21(DE3) pLysS, glutathione-Sepharose
In the case of B1, the Km is reported as 113.3 µM.
